± gives the half width of the 95% confidence interval.
What was measured:
[1] = folding stability dG unfold from chymotrypsin proteolysis; higher = more stable
Experimental: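 Folding stability of de novo designed mini-proteins (<80 aa, no Cys; designed by TrROS, TrMRF, ProteinMPNN and the joint model) was measured by cDNA display proteolysis with trypsin and chymotrypsin. Each protease was used at 11 concentrations in a threefold dilution series plus a no-protease condition. K50 was inferred by Bayesian fitting of sequencing counts, and dG unfold was derived against a sequence-predicted unfolded-state K50 (Tsuboyama et al. method). Sequences shown include variable-length N-terminal GS-type padding (SAGGSAGG...) inside a display construct carrying a PA tag. Rows were kept only if the AF2 dimer inter-PAE was >15, to exclude likely homo-oligomers.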

[2] = folding stability dG unfold (combined trypsin and chymotrypsin); higher = more stable
How it was run: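 Designed mini-proteins with no cysteine and under 80 residues were kept only if AlphaFold2 dimer inter-PAE was above 15. In a PA-tagged cDNA display construct, they were digested with trypsin and chymotrypsin and then sequenced. K50 was inferred by Bayesian fitting of counts, and unfolding free energy was derived per protease or combined against a sequence-predicted unfolded-state K50 and a shared folded-state K50.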

Row | Sequence | folding stability dG unfold [1] [kcal/mol] | folding stability dG unfold [2] [kcal/mol]
1 | SAGGSAGGSAGGMSTVVEESFYPEERVLRRTTTTVEEEGVTTEPSVYTVEPGDPNVLTPASAGGSAGGSAGG [r7_866_JUSTAS] | 0.0822 ± 0.22 | -0.434 ± 0.25
2 | SAGGSAGGSAGGMVRTLDLPNLSEEEIEEIIKKNPNEVYEITFRPPNGPEVTKTIPTHHSAGGSAGGSAGGS [r10_408_JUSTAS] | 0.84 ± 0.081 | 0.524 ± 0.18
3 | SAGGSAGGSAGGMYIPGDLVEWVSPVGDKWRVGLIGKPQTFDWKDIPAPSNENIVFVPGSAGGSAGGSAGGS [r10_665_TrMRF] | -0.392 ± 0.29 | < -1
4 | SAGGSAGGSAGGNPVYRTRAEILETVPVGEDETVWLPGTAAPVSPSTTVLLARVYSVPADSAGGSAGGSAGG [r11_793_TrMRF] | -0.355 ± 0.27 | < -1
5 | SAGGSAGGSAGGPFFMPEQKGTIPADELQKKGGNLTSVEIKVRPWMMELEIEIVYPPGDKSAGGSAGGSAGG [r7_116_TrROS] | 1.14 ± 0.36 | 0.0937 ± 0.51
6 | SAGGSAGGSAGGPIEEILASLPPNATVKVSRVVKLTTPDGSLSSIEVEEVITVKKPEKALSAGGSAGGSAGG [r11_347_JUSTAS] | 0.655 ± 0.02 | 0.287 ± 0.13
7 | SAGGSAGGSAGGPIVLKFKTKEEAEEFAKKLKKEIPNIKEVKIEEDPETGEYYLVVVNDSAGGSAGGSAGGS [r10_544_TrMRF] | 4.86 ± 0.17 | 5 ± 0.28
8 | SAGGSAGGSAGGPMYTVHTETFTTLEPGAGKRIVTTRTTNPATGATATTTTVIPLEPEALSAGGSAGGSAGG [r17_153_JUSTAS] | -0.555 ± 0.39 | < -1
9 | SAGGSAGGSAGGPPVLTVTRYPPTPYLTVTLPGGRPVVLPVHPDTPPSDVLRLARELTASAGGSAGGSAGGS [r10_33_TrMRF] | -0.163 ± 0.26 | < -1
10 | SAGGSAGGSAGGPVFDMSNFEEVKEAAEKAGIDVVEEDPEKNTIYVDPSKPELIKEAIQKSAGGSAGGSAGG [r7_285_JUSTAS] | 0.874 ± 0.14 | 0.205 ± 0.4
11 | SAGGSAGGSAGGRPIPLDEFRDMPPNWKIEFNNGKEVEIPADDIKKPIDKGDTVRIEPVPSAGGSAGGSAGG [r7_643_TrROS] | 0.705 ± 0.024 | 0.188 ± 0.098
12 | SAGGSAGGSAGGSATVTTTTTSGATITPPALTELPSGYVAVVTPTGDTLNVVIAPKALLSAGGSAGGSAGGS [r4_279_JUSTAS] | 0.214 ± 0.26 | -0.966 ± 0.49
13 | SAGGSAGGSAGGSDDGSGVRLETFTVTGKGATVTLPDGSTLTVPADQTVTVTRLEVLPKSAGGSAGGSAGGS [r4_26_TrMRF] | -0.509 ± 0.23 | < -1
14 | SAGGSAGGSAGGSGFILKESPDSVLSYDAITGETKKVPSKDVVLEYDPNNGVYTLTVSKSAGGSAGGSAGGS [r4_127_JUSTAS] | 0.639 ± 0.12 | 0.168 ± 0.17
15 | SAGGSAGGSAGGSGMEEIEEKMKKGYTFTVTSSSPNKTYTIKPEEVSKFKDESISVKAESAGGSAGGSAGGS [r4_157_JUSTAS] | -1.4 ± 0.84 | < -1
16 | SAGGSAGGSAGGSGPDETILVTRKVTTTEPVLLEHDGTPRVRERTVTRTSSTTERVDLSSAGGSAGGSAGGS [r4_271_JUSTAS] | -0.146 ± 0.21 | -0.835 ± 0.32
17 | SAGGSAGGSAGGSGSTTPIPATGATLTTETLPDGSPLYTLTDPATGATTTYPPGAPVGLSAGGSAGGSAGGS [r4_158_JUSTAS] | -0.26 ± 0.07 | < -1
18 | SAGGSAGGSAGGSKLKEGEKYKVYFKKTKKELEVETLEQLKALEKAGKKVEIVKIEKVPSAGGSAGGSAGGS [r4_214_TrROS_Hall] | 0.153 ± 0.21 | -0.269 ± 0.14
19 | SAGGSAGGSAGGSKSIYISPDDPNNIRTPDDGEPFKGMPIEEAKKEGIEPRGPNAFRIPSAGGSAGGSAGGS [r4_306_TrROS] | -0.152 ± 0.36 | -0.582 ± 0.54
20 | SAGGSAGGSAGGSKVYVLVPVPNPEAIWEKVKALGPDAKVNSVEFLPGEGYLRVEVDAPSAGGSAGGSAGGS [r10_23_TrMRF] | -0.318 ± 0.49 | < -1
21 | SAGGSAGGSAGGSMKSVPVITTTTTVLPNGTTVTTTTVNNVTSSGTTSSTTTTVTPSLLSAGGSAGGSAGGS [r4_486_JUSTAS] | -0.571 ± 0.15 | -0.836 ± 0.22
22 | SAGGSAGGSAGGSMLTVRSSSTTPLPDGSTVTTYEVNDKPYLVRVDPNGPVVTVKPLSLLSAGGSAGGSAGG [r7_772_JUSTAS] | -0.367 ± 0.4 | -0.473 ± 0.29
23 | SAGGSAGGSAGGSMVIKFTHPDGDPNLPVETLNLKKEELSEEKIKELKEKNPDIKIELKSAGGSAGGSAGGS [r4_422_JUSTAS] | 0.257 ± 0.33 | -0.326 ± 0.39

Source: the supplement of paper PMC12764529
